{"source": "patent US20260226192", "test_system": "Engineered trastuzumab antibody design 18 [anti-Her2 ScFv-FC]", "sequence (chain, as listed by the source, change not shown)": "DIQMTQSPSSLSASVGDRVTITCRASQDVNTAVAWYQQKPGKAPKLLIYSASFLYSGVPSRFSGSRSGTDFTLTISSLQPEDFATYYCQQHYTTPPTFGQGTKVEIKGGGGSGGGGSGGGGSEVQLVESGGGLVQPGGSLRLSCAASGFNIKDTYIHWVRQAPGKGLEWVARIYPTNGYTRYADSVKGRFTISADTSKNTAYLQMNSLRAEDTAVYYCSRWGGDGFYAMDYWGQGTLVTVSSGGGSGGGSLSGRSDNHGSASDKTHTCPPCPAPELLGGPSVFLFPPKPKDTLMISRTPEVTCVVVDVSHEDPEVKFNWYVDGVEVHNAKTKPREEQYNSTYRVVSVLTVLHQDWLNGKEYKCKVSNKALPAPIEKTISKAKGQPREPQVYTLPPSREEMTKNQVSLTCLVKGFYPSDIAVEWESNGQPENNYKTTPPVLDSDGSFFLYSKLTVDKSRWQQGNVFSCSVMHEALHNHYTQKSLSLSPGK"}
{"substance": "uPA protease", "values": [{"measurement": "protease digestion with uPA (1:1 molar), SDS-PAGE", "result": "uPA cleaved the antibody variants and generated F(ab) fragments in a similar manner as it did for the other designs"}]}
